The labels stand for the following.
B1: Clone 4.3 (bispecific antibody, human IgG1, kappa, L234A L235A)
heavy 1: not shown
heavy 2: QVQLVQSGAEVKKPGASVKVSCKASGYTFTGYYMHWVRQAPGQGLEWMGWIYPNTGGVNYAQNFQGRVTMTRDTSISTAYMELSRLRSDDTAVYYCARDDYNKNLDYWGQGTLVTVSSASTKGPSVFPLAPSSKSTSGGTAALGCLVKDYFPEPVTVSWNSGALTSGVHTFPAVLQSSGLYSLSSVVTVPSSSLGTQTYICNVNHKPSNTKVDKKVEPKSCDKTHTCPPCPAPEAAGGPSVFLFPPKPKDTLMISRTPEVTCVVVDVSHEDPEVKFNWYVDGVEVHNAKTKPREEQYNSTYRVVSVLTVLHQDWLNGKEYKCKVSNKALPAPIEKTISKAKGQPREPQVCTLPPSRDELTKNQVSLSCAVKGFYPSDIAVEWESNGQPENNYKTTPPVLDSDGSFFLVSKLTVDKSRWQQGNVFSCSVMHEALHNHYTQKSLSLSPG
light: not shown
notes: FAP:LTBR 1:1 heterodimer of LTBR VHH (clone 1.6) paired with FAP Fab (clone 3.6), human IgG1 LALA
B2: Clone 4.4 (bispecific antibody, human IgG1, kappa, L234A L235A)
heavy 1: not shown
heavy 2: B1 heavy 2
light: not shown
notes: FAP:LTBR 2:1 heterodimer of FAP mAb (clone 3.6) with C terminal fused LTBR VHH (clone 1.6), human IgG1 LALA
B3: Clone 4.6 (bispecific antibody, human IgG1, kappa, L234A L235A)
heavy 1: not shown
heavy 2: B1 heavy 2
light: not shown
notes: FAP:LTBR 2:1 heterodimer of FAP mAb (clone 3.6) with C terminal fused LTBR VHH (clone 1.7), human IgG1 LALA
B4: Clone 4.2 (bispecific antibody, human IgG1, kappa, L234A L235A)
heavy 1: not shown
heavy 2: QLQLQESGPGLVKPSETLSLTCTVSGGSISSSTYYWGWIRQPPGKGLEWIGSIFYSGNTYYNPSLKSRVTISVDTSKNHFSLKLSSVTAADTAVYYCAREIIEPRPGYFDYWGQGTLVTVSSASTKGPSVFPLAPSSKSTSGGTAALGCLVKDYFPEPVTVSWNSGALTSGVHTFPAVLQSSGLYSLSSVVTVPSSSLGTQTYICNVNHKPSNTKVDKKVEPKSCDKTHTCPPCPAPEAAGGPSVFLFPPKPKDTLMISRTPEVTCVVVDVSHEDPEVKFNWYVDGVEVHNAKTKPREEQYNSTYRVVSVLTVLHQDWLNGKEYKCKVSNKALPAPIEKTISKAKGQPREPQVCTLPPSRDELTKNQVSLSCAVKGFYPSDIAVEWESNGQPENNYKTTPPVLDSDGSFFLVSKLTVDKSRWQQGNVFSCSVMHEALHNHYTQKSLSLSPG
light: not shown
notes: FAP:LTBR 1:1 heterodimer of LTBR VHH (clone 1.7) paired with FAP Fab (clone 3.5), human IgG1 LALA
B5: Clone 4.5 (bispecific antibody, human IgG1, kappa, L234A L235A)
heavy 1: not shown
heavy 2: B4 heavy 2
light: not shown
notes: FAP:LTBR 2:1 heterodimer of FAP mAb (clone 3.5) with C terminal fused LTBR VHH (clone 1.6), human IgG1 LALA

The text below walks through data of patent publication US20260176336A1 (MESTAG THERAPEUTICS, published 2026).

Sequence of cynomologus recombinant LTBR (Octet, Example 4.8) (P36941 other isoform, or with tags, fused parts or gaps limits assumed): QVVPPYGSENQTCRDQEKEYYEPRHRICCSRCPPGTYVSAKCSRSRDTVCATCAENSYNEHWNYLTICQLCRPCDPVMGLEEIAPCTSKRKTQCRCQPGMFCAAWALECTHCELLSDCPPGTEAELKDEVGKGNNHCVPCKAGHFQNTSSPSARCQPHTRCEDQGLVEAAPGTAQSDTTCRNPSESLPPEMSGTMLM

The target of one assay is T1, human LTBR endogenously expressed on cells (HepG2, A549, A375, HCC1187, RPMI-7951, primary human breast CAFs) (human, UniProt P36941 31-435). Briefly: cell-based or functional assay.
T1 sequence (P36941 31-435): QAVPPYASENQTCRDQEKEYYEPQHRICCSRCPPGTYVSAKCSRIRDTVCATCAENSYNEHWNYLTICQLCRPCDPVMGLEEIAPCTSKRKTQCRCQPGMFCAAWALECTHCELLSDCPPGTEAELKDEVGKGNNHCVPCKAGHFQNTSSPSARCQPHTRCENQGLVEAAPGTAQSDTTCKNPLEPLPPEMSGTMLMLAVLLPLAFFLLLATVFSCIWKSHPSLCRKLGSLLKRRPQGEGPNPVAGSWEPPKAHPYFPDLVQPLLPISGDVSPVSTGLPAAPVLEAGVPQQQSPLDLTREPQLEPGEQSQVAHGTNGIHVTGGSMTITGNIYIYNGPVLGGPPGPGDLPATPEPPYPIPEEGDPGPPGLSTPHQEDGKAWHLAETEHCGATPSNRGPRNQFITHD
Turning to B1, the “HepG2 Reporter assay, HepG2:FAP-CHO-K1 Co-culture EC50” value (from here on “HepG2 Reporter assay”) amounted to 0.06 nM.

For B2, the “HepG2 Reporter assay” value is 0.031 nM.

Consider B3, for which the “HepG2 Reporter assay” value came out at 0.053 nM.

B4: the “HepG2 Reporter assay” value was 0.03 nM.

For the molecule B5, the “HepG2 Reporter assay” value is 0.04 nM.

In the next assay the target is T1, human LTBR endogenously expressed on …. Briefly: cell-based or functional assay. This is another data set of the same source.
Take B1: the “CCL19 upregulation, HCC1187:CAF Co-culture EC50” value (shortened to “CCL19 upregulation”) is 0.09 nM.

As for B2, the “CCL19 upregulation” value stood at 0.054 nM.

Turning to B3, the “CCL19 upregulation” value came out at 0.013 nM.

Regarding B4, the “CCL19 upregulation” value amounted to 0.06 nM.

As for B5, the “CCL19 upregulation” value was found to be 0.023 nM.

A further assay shares this target. Briefly: cell-based or functional assay. This is another data set of the same source.
As for B1, the “ICAM1 upregulation in CAFs monoculture assay EC50” value (from here on “ICAM1 upregulation”) came to 0.04 nM.

With B2, the “ICAM1 upregulation” value was found to be 0.0048 nM.

With B3, the “ICAM1 upregulation” value stood at 0.01 nM.

As to B4, the “ICAM1 upregulation” value came out at 0.019 nM.

B5: the “ICAM1 upregulation” value was determined as 0.011 nM.

For a further assay the target is unchanged. Briefly: cell-based or functional assay. This is another data set of the same source.
In the case of B1, the “chemokine (CCL5) induction in RPMI-7951 EC50” value (“chemokine (CCL5) induction” for short) amounted to 0.1 nM.

For the molecule B2, the “chemokine (CCL5) induction” value is 0.028 nM.

As for B3, the “chemokine (CCL5) induction” value came to 0.024 nM.

For the molecule B4, the “chemokine (CCL5) induction” value was 0.063 nM.

As for B5, the “chemokine (CCL5) induction” value was 0.018 nM.

A further assay shares this target. Kind of assay: cell-based or functional assay. The source holds these as a separate data set.
With B1, the “HCC-1187:RPMI7951 (cis-activation) co-culture assay CCL5 read-out EC50” value was determined as 0.12 nM and the “HCC-1187:RPMI7951 (trans-activation) co-culture assay, CCL19 Read-out EC50” value was found to be 0.11 nM.

Turning to B2, the “HCC-1187:RPMI7951 (cis-activation) co-culture assay CCL5 read-out EC50” value was 0.012 nM.

For the molecule B3, the “HCC-1187:RPMI7951 (cis-activation) co-culture assay CCL5 read-out EC50” value was 0.013 nM.

As for B4, the “HCC-1187:RPMI7951 (cis-activation) co-culture assay CCL5 read-out EC50” value is 0.11 nM and the “HCC-1187:RPMI7951 (trans-activation) co-culture assay, CCL19 Read-out EC50” value was found to be 0.16 nM.

Turning to B5, the “HCC-1187:RPMI7951 (cis-activation) co-culture assay CCL5 read-out EC50” value is 0.012 nM.

The next assay shares this target. Briefly: flow cytometry, A549 cells. The method, then:
(§1) In short, 1×10⁶ cells were resuspended in the FACS buffer (1% BSA, 0.1% Sodium Azide in PBS), and 50 μl was added to each well (5×10⁴ cells/well) of a 96-U bottom plate. The cells were washed once and resuspended in 50 μl/well of FACS buffer containing a 1:3, 11-point series dilutions of constructs 4.1-4.6 and clones 4.8-4.9 followed by 1 h incubation at 4° C. […] Next, cells were washed and resuspended in FACS buffer and read on Beckman Coulter CytoFLEX. The data were analysed using FloJo V10 and GraphPad Prism v9. Clone 4.7 was tested for binding to A375 (LTBR positive cell line) and the HEK293-FAP overexpressing cell line, as described in examples 2.4 and 3.5. The EC50 values can be found in.
For orientation: A flow cytometer gives signals particle by particle.
Regarding B1, a half-maximal effect (EC50) was put at 6.9 nM.

Regarding B2, the EC50 (commonly the concentration needed to bring the measured effect to its halfway point) came to 45 nM.

Molecule B4 displayed an EC50 of 3.2 nM.

In the case of B5, the EC50 worked out at 29 nM.

The target of a further assay is T2, human FAP expressed on cells (transfected HEK293; FAP-CHO-K1 recombinant cell line, BPS cat no. 79947) (human, UniProt Q12884 1-760).
T2 construct: also called HuFAP-HEK293; Hek-FAP
Briefly: flow cytometry, FAP-CHO-K1 cells. On the procedure:
as §1
For the molecule B1, the EC50 was 0.8 nM.

Regarding B2, the EC50 was 0.2 nM.

As to B3, the EC50 turned out to be 0.33 nM.

In the case of B4, the EC50 is 0.47 nM.

Regarding B5, the EC50 was determined as 0.11 nM.

The target in a further assay is T3, Biotinylated hLTBR-His-Avitag (Acro, cat no LTR-H82E9-25 µg) (human, UniProt P36941 31-227, biotinylated (Avitag)).
T3 construct: bought protein loaded on SA Streptavidin biosensors
T3 sequence (P36941 31-227 limits assumed): as the sequence (P36941 other isoform, or with tags, fused parts or gaps limits assumed) above, with V2A, G7A, R24Q, S45I, D163N, R181K, S184L, S186P counted along it
Briefly: BLI (Octet), biotinylated LTBR on SA sensor, antibody as analyte. On the procedure: Briefly, Biotinylated hLTBR-His-Avitag (Acro, cat no LTR-H82E9-25 μg) was loaded on SA Streptavidin biosensors (Fortebio) in kinetics buffer (ForteBio) followed by a 2-fold dilution series starting at 50 nM of FAP/LTBR bispecific antibodies. Binding kinetics were studied in a 1× Kinetics buffer where the association was allowed for 100 seconds, followed by dissociation for 300 seconds. Data generated were referenced by subtracting a parallel buffer blank, the baseline was aligned with the y-axis, inter-step correlation by alignment against dissociation was performed, and the data were smoothed by a Savitzky-Golay filter in the data analysis software. The processed data were fitted using a 1:1 Langmuir binding model with R\hat{ }2 as a measurement of fitting accuracy. The KD and R\hat{ }2 values can be found in.
In general terms: BLI is a label-free optical method that tracks binding on a fibre tip over time.
On to B1, for which the affinity, expressed as Kd, was 3.1 nM.

For B2, binding was characterised by a dissociation constant (Kd) of 4.6 nM.

For B3, the Kd – broadly, the free concentration of one partner at which half of the binding sites on the other are occupied at equilibrium, for simple one-to-one binding – came to 4.3 nM.

With B4, the Kd came out at 3.2 nM.

In the case of B5, binding was put at a Kd of 6.5 nM.

Another assay addresses cynomologus recombinant LTBR (Octet, Example 4.8) (cynomolgus (Macaca fascicularis), UniProt P36941 31-227 (human entry), limits assumed). Kind of assay: BLI (Octet), cyno LTBR immobilised on ARG sensor, antibody at 25 nM. The method, then:
A 2-fold series dilution starting at 50 nM of cynomologus recombinant LTBR was immobilised on the surface of ARG biosensors (Fortebio), followed by FAP/LTBR bispecific at 25 nM. Binding kinetics were studied in a 1× Kinetics buffer where the association was allowed for 180 seconds, followed by dissociation for 100 seconds. Sensor tips were regenerated using ethylene glycol. Data generated were referenced by subtracting a parallel buffer blank, the baseline was aligned with the y-axis, inter-step correlation by alignment against dissociation was performed, and the data were smoothed by a Savitzky-Golay filter in the data analysis software. The processed data were fitted using a 1:1 Langmuir binding model with R\hat{ }2 as a measurement of fitting accuracy. The KD values can be found in.
Turning to B1, the Kd was 5.78 nM.

Regarding B2, the Kd was 8.3 nM.

B3: the Kd was determined as 17.1 nM.

As to B4, the Kd came out at 6.75 nM.

For B5, the Kd is 5.22 nM.

The target of the next assay is T4, human FAP (Acro, cat no FAP-H82Q6) (human, UniProt Q12884 26-760).
T4 construct: 'FAP is naturally a dimeric antigen'
Kind of assay: BLI (Octet), antibody captured by anti-Fc, FAP as analyte; * value outside instrument specifications. The method, then: Binding to recombinant FAP proteins was investigated by Bio-Layer Interferometry (BLI) using the Octet instrument. Using standard amine coupling chemistry, an anti-Fc antibody was immobilised on the surface of ARG biosensors (Fortebio). The FAP/LTBR bispecific antibodies were loaded on the previously coated surface with anti-Fc capture antibody, followed by a 2-fold series dilution starting at 50 nM of either cyno FAP (Acro, cat no FAP-C82Q5) or human FAP (Acro, cat no FAP-H82Q6). Binding kinetics were studied in a 1× Kinetics buffer where the association was allowed for 200 seconds, followed by dissociation for 400 seconds. Sensor tips were regenerated using 10 mM Glycine pH 2.0. Data generated were referenced by subtracting a parallel buffer blank, the baseline was aligned with the y-axis, inter-step correlation by alignment against dissociation was performed, and the data were smoothed by a Savitzky-Golay filter in the data analysis software. The processed data were fitted using a 1:1 Langmuir binding model with R\hat{ }2 as a measurement of fitting accuracy. The Results are summarised in. Avidity was observed as FAP is naturally a dimeric antigen, and the limited detection by Octet with these molecules has been reached. Species cross-reactivity has been confirmed for all test samples.
In the case of B1, binding was characterised by a dissociation constant (Kd) of 0.192 nM.

B2 came in with a Kd of 0.231 nM.

B3 displayed a Kd of 0.0443 nM.

B4 returned a Kd of 0.325 nM.

Molecule B5 displayed a Kd of 0.1 nM.
